# Reference: patent US20240287457A1, “COMPOSITIONS AND CELL CULTURE MEDIA FOR INCREASING NEUTROPHIL LIFESPAN” (THE CHILDREN'S MEDICAL CENTER CORPORATION, priority 2021, published 2024)
# Columns and labels:
# murine neutrophils [1] = assay: In vitro neutrophil death / survival of cultured murine neutrophils; assay type: cell-based, mouse; conditions: for healthy neutrophils remaining: mouse, G-CSF alone
# caspases = conditions: pan-caspase inhibitor; cited from earlier work
# cells = conditions: even at extremely high concentrations; cited from earlier work
# [2] = tested on: neutrophils purified from wild-type (WT) mice; assay: fMLP-induced neutrophil polarization (ruffling); assay type: cell-based, mouse; conditions: fMLP 1 μM, FIG. 10
# Experimental: FIG. 10A is a series of images showing chemoattractant-induced neutrophil ruffling. Neutrophils (2×10^5) purified from wild-type (WT) mice were plated on LABTEK chamber slides and cultured in RPMI-1640 in the presence or absence of Rac1 inhibitor for 60 minutes. Cells were then uniformly stimulated with N-formyl-met-leu-phe (fMLP, 1 μM). Images were taken 5 minutes after the fMLP stimulation (400×). FIG. 10B is a bar graph showing the percentage of cells that ruffled or extended pseudopods, calculated from images captured 5 minutes after stimulus was added. At least 200 cells were assessed for each sample in each experiment. Data are represented as mean±SD of three experiments. **p<0.001 versus untreated neutrophils.
# neutrophils = conditions: 20 hours at 37° C. in anoxic culture medium with 3 mM glucose and 32 mg/mL DMOG; from about 1 day; cited from earlier work
# [3] = tested on: neutrophils in the granulocyte apheresis concentrates; assay: Survival and function of neutrophils from human granulocyte apheresis concentrates; assay type: cell-based; conditions: cultured for only 1 day, FIG. 6K
# Experimental: Accordingly, the donors were stimulated in the evening and granulocyte collection was carried out the next morning. Neutrophil harvesting was accomplished through the process of apheresis in which red blood cells (RBCs) and plasma were returned to the donor. To collect enough cells for GTX, standard continuous flow apheresis was performed for 1 to 1.5 hours to process 3.5 to 5 liters of blood. Citrate was used as the anticoagulant during collection and calcium gluconate was added to the return line to counteract the citrate-induced hypocalcemic symptoms in the donor. […] The purity was >97% as determined by both Wright-Giemsa staining and flow cytometry analysis with CD15 and CD16 antibodies. […] No contamination of hematopoietic progenitor cells (HPCs) was detected. […] The total initial cell number was counted using a hemocytometer before culture or treatment. At each indicated time point, the total cell number was counted again. […] Apoptotic cells were detected by Annexin V-fluorescein isothiocyanate (FITC) and propidium iodide (PI) staining using an Annexin V Detection Kit (BD BIOSCIENCES) following the manufacturer's protocol. Flow cytometry was performed using a FACSCANTO II flow cytometer and analyzed using […] software (BD BIOSCIENCES). […] Chemotaxis velocity and directionality were analyzed; see e.g., Jia et al. 2007, supra. […]
# transfused neutrophils [4] = assay: In vivo recruitment of transfused neutrophils in a mouse peritonitis model; conditions: 1-day-old neutrophils
# Experimental: In vivo recruitment of transfused neutrophils in a mouse peritonitis model: Freshly isolated CD45.1^+ or CLON-G-treated (1 day) GFP^+ bone marrow neutrophils were mixed (1:1, a total of 5×10^6/mouse) and injected intravenously into neutropenic recipient mice challenged with TG for 1 hour. At the indicated time points after cell injection, peritoneal cells were harvested by peritoneal cavity lavage with 5 mL of ice-cold PBS/15 mM EDTA, flushed back and forth three times. The relative amount of transfused freshly isolated CD45.1^+ and CLON-G-treated (1 day) GFP^+ neutrophils were analyzed by flow cytometry using a BD FACSCANTO II flow cytometer as described above.
# human neutrophils = assay: In vitro neutrophil death / survival of cultured human neutrophils; conditions: G-CSF alone
# transfused neutrophils [5] = assay: In vivo recruitment of transfused neutrophils in bacterial pneumonia; parameters: species or system mouse; conditions: lungs
# Experimental: In vivo recruitment of transfused neutrophils in bacterial pneumonia: Freshly isolated or CLON-G-treated bone marrow neutrophils were labeled with carboxyfluorescein diacetate succinimidyl ester (CFSE, 5 μM) or seminaphthorhodafluor-1 acetate (SNARF-1, 5 μM) at 37° C. for 10 minutes; labeled cells were mixed (1:1, a total of 5×10^6/mouse) and transfused via the tail vein into the same neutropenic recipient mice challenged with 5×10^3 cfu E. coli for 4 hours. Whole lungs were homogenized 3 hours after neutrophil transfusion. The number of adoptively transferred neutrophils recruited to the lungs was analyzed using a FACSCANTO II flow cytometer and […] software. Relative recruitments of CLON-G-treated and freshly isolated neutrophils were calculated as the ratio of the indicated populations.
# E. coli = assay: Neutropenia-related E. coli-induced pneumonia model (GTX); assay type: in vivo, mouse
# murine neutrophils [6] = assay: In vitro phagocytosis assay, murine neutrophils; assay type: cell-based, mouse; conditions: after one day of culture
# Experimental: In vitro phagocytosis assay: […] pHrodo Red E. coli BioParticles or Zymosan A S. cerevisiae BioParticles (INVITROGEN) were reconstituted in phosphate-buffered saline (PBS) and opsonized with 10% serum at 37° C. for 30 minutes. Neutrophils were incubated with serum-opsonized bioparticles at a ratio of 1:10 (neutrophils:bioparticles) at 37° C. for 0.5 hours. APC-Ly6G (BIOLEGEND, 1A8, 0.2 μg/mL) or APC-CD16 (BIOLEGEND, 51.1, 0.2 μg/mL) antibody was added to the sample to label mouse or human neutrophil membranes. The labeling was achieved by incubating the samples at room temperature for 3 minutes. The number of internalized particles was counted under a spinning disk confocal microscope ([…] VOX). Phagocytosis efficiency was expressed as the percentage of neutrophils that engulfed at least one bioparticle. Phagocytosis index was expressed as the average number of internalized particles per cell. At least 200 cells were counted from random fields per coverslip for each group.
# [7] = tested on: transfused human neutrophils; assay: Survival and function of transfused human neutrophils in vivo in NSG mice
molecule,measurement,setting,value
"C[C@H](NC(=O)C(=O)Nc1ccccc1C(C)(C)C)C(=O)N[C@@H](CC(=O)O)C(=O)COc1c(F)c(F)cc(F)c1F [Emricasan, N-[2-(1,1-dimethylethyl)phenyl]-2-oxoglycyl-N-[(1S)-1-(carboxymethyl)-2-oxo-3-(2,3,5,6-tetrafluorophenoxy)propyl]-L-Alaninamide, reference compound]",lifespan of cultured neutrophils,"murine neutrophils [1]; in combination with NAC, Hsp70, DFO, G-CSF, and optionally a RIPK1 inhibitor, FIG. 23, murine bone marrow neutrophils",prolonged the lifespan
same,activity in vitro,caspases,sub- to nanomolar
"CC(C)C(NC(=O)c1ccc2ccccc2n1)C(=O)NC(CC(=O)O)C(=O)COc1c(F)cccc1F (stereo not drawn) [Q-VD-Oph, Quinoline-Val-Asp-Difluorophenoxymethylketone]",toxicity to cells,cells,not toxic
CCN(CC)CCCC(C)Nc1nc(C)cc(Nc2ccc3nc(C)cc(N)c3c2)n1 (centres unmarked) [NSC23766],fMLP-induced neutrophil polarization,[2],effectively inhibited
"COC(=O)CNC(=O)C(=O)OC [DMOG, dimethyloxalylglycine]",neutrophil half-life in vitro,neutrophils,48 h
"G-CSF: granulocyte colony-stimulating factor (AMGEN, NEUPOGEN), PI3K/Akt pathway stimulator (protein, listed as Homo sapiens) MTPLGPASSLPQSFLLKCLEQVRKIQGDGAALQEKLCATYKLCHPEELVLLGHSLGIPWAPLSSCPSQALQLAGCLSQLHSGLFLYQGLLQALEGISPELGPTLDTLQLDVADFATTIWQQMEELGMAPALQPTQGAMPAFASAFQRRAGGVLVASHLQSFLEVSYRVLRHLAQP",reduction in relative bacterial killing capability,[3],more than 50%
same,recruitment efficiency compared to fresh neutrophils,transfused neutrophils [4],reduced recruitment efficiency
same,healthy neutrophils remaining,human neutrophils; after 1 day of treatment,about 55%
same,healthy neutrophils remaining,human neutrophils; after 3 days of treatment,~15%
same,recruitment efficiency compared to fresh neutrophils,transfused neutrophils [5],reduced recruitment efficiency
same,"inflammatory cytokine concentrations (TNF-α, IL-6)","E. coli; inflamed lungs, ELISA",unable to reduce inflammatory cytokine concentrations
same,edema formation,"E. coli; lung, transfusion of treated neutrophils",failed to produce the same protective effect
same,bacteria-killing capacity in neutropenic recipient mice,"E. coli; transfusion of treated neutrophils, 5×10^3 cfu E. coli",ineffective
same,BALF protein concentrations,"E. coli; transfusion of treated neutrophils, compared with fresh neutrophils",remained high
same,phagocytosis efficiency,murine neutrophils [6],lower
same,recruitment of transfused human neutrophils to the inflamed peritoneal cavity,[7]; 1 and 2 hours post transfusion,lower
same,human neutrophils left in the peritoneal cavity / cell death,"[7]; injected into inflamed peritoneal cavity, each time point",faster rates of cell death
same,phagocytosis efficiency lower than that of fresh human neutrophils,[7]; pHrodo-E. coli,about 50%
same,healthy neutrophils remaining,murine neutrophils [1]; after 1 day of treatment,~40%
same,healthy neutrophils remaining,murine neutrophils [1]; after 3 days of treatment,~15%
